Results taken from publication PMC8310136.

Biological target: NT*MNV VPg (Murine norovirus (MNV), UniProt Q80J95 871-994)
Assay: competition; 100-fold excess over labelled PP9 RNA
Settings: protein: recombinant, tags: N-terminal His6-StrepII-spidroin NT*-enterokinase site-GGSRS linker, label: none

Binder | binding result | binding result (blunt)
ssDNA competitor (ssDNA) DNA: TATGCGGGCGAAACTTCTGGGAATAGTCCTGACAACCCCTATTGCGATCAGCTCTTTTGCTAGCTCG | no binding | –
dsDNA competitor (dsDNA) DNA 1: TATGCGGGCGAAACTTCTGGGAATAGTCCTGACAACCCCTATTGCGATCAGCTCTTTTGCTAGCTCG DNA 2: CGAGCTAGCAAAAGAGCTGATCGCAATAGGGGTTGTCAGGACTATTCCCAGAAGTTTCGCCCGCATA | – | no binding
